Results from paper PMC10045995.

Assays:
[1] = molecular target: epidermal growth factor receptor (EGFR), expressed in sensor cells as fusion protein 1 (mNpu^N-EGFR) and fusion protein 2 (EGFR-Npu^C-rMTS-mCherry) (UniProt P00533)
[2] = molecular target: epidermal growth factor receptor (EGFR), expressed in sensor cells as fusion protein 1 (mNpu^N-EGFR) and fusion protein 2 (EGFR-Npu^C-rMTS-mCherry) (UniProt P00533); remark: listed apart in the source

co-localisation (Pearson's r) of mCherry with mitochondrial stain in sensor cells treated with EGF 0.001-100 ng/mL for 1 h (untreated control 0.08) [1] [Pearson's r]	limit of detection (LOD) of EGF by the sensor cells (mCherry translocation to mitochondria) [1] [ng/mL]	co-localisation (Pearson's r) of mCherry with mitochondrial stain in EGF-treated sensor cells (agonist/antagonist screen; untreated control 0.1) [2] [Pearson's r]	co-localisation (Pearson's r) of mCherry with mitochondrial stain in sensor cells co-treated with EGF and Cetuximab (400 nM) (EGF alone 0.8) [2] [Pearson's r]	co-localisation (Pearson's r) of mCherry with mitochondrial stain in sensor cells treated with TGF-α (100 ng/mL) (untreated control 0.1) [2] [Pearson's r]	Substance
0.87	0.1	0.8	0.1		epidermal growth factor (EGF) (from UniProt P01133 971-1023) (ligand)
				0.8	transforming growth factor-α (TGF-α) (from UniProt P01135 40-89) (ligand)
